Reference: US20260242730A1 (POINTLOMA BIOSCIENCES, published 2026)
Substitutions are numbered along the chain they refer to.

T1: human TROP2 (antigen of panning and clone screening) (human, UniProt P09758 27-274, limits assumed)
T1 construct: also called human TROP2-His protein; TROP2-expressing CHOK1 cells
T1 sequence (looked up): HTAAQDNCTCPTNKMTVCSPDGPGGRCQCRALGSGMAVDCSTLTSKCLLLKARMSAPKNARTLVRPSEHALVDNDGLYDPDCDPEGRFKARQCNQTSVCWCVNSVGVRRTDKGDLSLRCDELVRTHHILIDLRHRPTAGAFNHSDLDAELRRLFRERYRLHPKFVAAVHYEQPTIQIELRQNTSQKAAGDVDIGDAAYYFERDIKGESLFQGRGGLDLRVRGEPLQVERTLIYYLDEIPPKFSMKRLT

B1: anti-TROP2 #TP16 VHH (VHH)
VHH: QVQLVESGGGLVQPGGSLRLSCAASGFAFSFYVMTWYRQAPGKQREQVAAITSYGGANYADSVKGRFTISRDNAKNTVYLQMNALTSEDTAVYSCNAHLGPYDYWGQGTQVTVSS
B2: anti-TROP2 #TP18 VHH (VHH)
VHH: QVQLVESGGGLVQPGGSLRLSCAASSSIFSIAIMGWYRQAPGKQRELVATISATDVTHYADSVKGRFTISRDDAWNAVYLQMDSLKAEDTAVYYCNSYLLQQRVPWGQGTQVTVSS
B3: anti-TROP2 #TP19 VHH (VHH)
VHH: B2 VHH with Q1E, L4V, S26R, I28V, S30N, T50S, H58S, A87S
B4: anti-TROP2 #TP12 VHH (VHH)
VHH: QVQLVESGGGLVQPGGSLRLSCAASRFTLDYYAIGWIRQAPGKEREGVSCISSSGGSTNYADSVKGRFTISRDNAKNTVYLQMNSLKPEDTGVYYCAATTYACSGYVPRAYEYDYWGQGTQVTVSS
B5: anti-TROP2 #TP5 VHH (VHH)
VHH: QLQLVESGGGLVQPGGSLKLSCAASGFTLDYWTIGWFRQAPGKEREGVSCISSSDGSTYYADSVKGRFTISRDNAKRTVNLQMNSLKPEDTAVYYCAAGSLGYCSRSTPQYEYDFWGQGTQVTVSS
B6: anti-TROP2 #TP7 VHH (VHH)
VHH: B5 VHH with K19R, T28S, D30E, Y31H, G56A, R77K, T78S, N80Y, P88L, F115Y
B7: anti-TROP2 #TP8 VHH (VHH)
VHH: B5 VHH with K19R, I51V, D55G, S57I, A75E, N80Y, F115Y
B8: anti-TROP2 #TP14 VHH (VHH)
VHH: EVQVVESGGGLVQPGGSLRLSCAVSGFTLDWYAIGWFRQAPGKEHEGVACIDPSERSTYADPVKGRFTISRDNAKNTVHLQMNSLKPEDTAVYYCAADTLPCFFYGSMWPPPDNWGQGTQVTVSS
B9: anti-TROP2 #TP9 VHH (VHH)
VHH: QVQLVESGGGLVQPGGSLRLSCAASGFSLDYWAIAWFRQAPGKEREGVSCSGSRGSTHYADSVKGRFTISRDNAKNTVYLQMNSLKPEDAGVYYCAVGSTLYSLTPYEYDYWGQGTQVTVSS
B10: anti-TROP2 #TP10 VHH (VHH)
VHH: B9 VHH with S28R, Y31H, A35G, R54D, G55E, H58Y, A90T, L101W
B11: anti-TROP2 #TP17 VHH (VHH)
VHH: EVQLVESGGGMVQPGGSLRLSCAFSGLTFSNYAMTWYRQAPGKERELVAGTPSPGGTTTYADSVKGRFTISRDNAEDTVYLQMNSLKPEDTAVYYCHARWMWPSDNAGMGYWGKGTLVTVSS
B12: anti-TROP2 #TP11 VHH (VHH)
VHH: QVQLVESGGGLVQPGGSLRVSCAASGFRLDYYAIGWFRQAPGKEREGVSSINYSSGSTVYADSVKGRFTISRGNAKNTVYLQMNSLKPEDTAVYYCAVGTVVTSLAPYEYDYWGQGTQVTVSS
B13: anti-TROP2 #TP13 VHH (VHH)
VHH: EVQLVESGGGLVQPGGSLRLSCALSGFTKDYYGIGWFRQAPGKEREGVSCISVSGSSTNYADSVKGRFTISRDNAKNTVYLQMNSLKPEDTGVYYCAAAFMGSDYVVPEMSREYDYWGQGTQVTVSS
B14: anti-TROP2 #TP15 VHH (VHH)
VHH: QVQLVESGGGLVQPGGSLRLSCAVSGDIFSFYSMGWYRQAPGEQRELVAHITSGGSTHYADSVKGRFTISRDNAKNTVYLQMNSPKPEDTAVYYCNADLDYWVDSMGPYWGQGTQVTVSS

biological target: T1, human TROP2 (antigen of panning and …); assay: positive phage clones from panning on human TROP2-His protein or on TROP2-expressing CHOK1 cells, ELISA
Text: After confirming successful immunization with TROP2 protein, PBMC was isolated and used for construction of a phage display library with the size of 2.42×10⁹ cfu. TROP2 VHH binders were isolated from the phage display library using solid phase panning on human TROP2-His protein and cell-based panning on the engineered, TROP2-expressing CHOK1 cells in two parallel discovery campaigns. […] Stringency was increased during successive rounds by decreasing antigen concentration, increasing the number and duration of washes, and/or changing the duration of selections. The positively identified phages were diluted and spread on a petri dish to grow single colonies. Individual phage clones were selected and amplified. […] After three rounds of screening on TROP2 CHOK1 cells, a total of 384 clones were selected, of which 163 clones were TROP2-specific as tested by ELISA. After sequencing the positive clones, 9 unique sequences were obtained based on amino acid sequences. In combination, a total of 20 unique sequences were identified.

Binding result, binds:
B1
B2
B3
B4
B5
B6
B7
B8
B9
B10
B11
B12
B13
B14
